Measurements as given in patent US5686294A.

Substrate: O=C(O)CC(=O)C(=O)O
Assay: purified protein, by the assay type
Conditions: other: recombinant enzyme from Escherichia coli JM109 (pMDH1) (Example 6, Table 4)

B1: heat-resistant malate dehydrogenase (MAD) of Bacillus stearothermophilus ATCC 12016 gene, produced by Escherichia coli JM109 (pMDH1), amino acid sequence SEQ … (protein)
chain: MAMKRKKISVIGAGFTGATTAFLLAQKELGDVVLVDIPQLENPTKGKALDMLEASPVLGFDANIIGTSDYADTADSDIVVITAGIARKPGMSRDDLVTTNQKIMKQVTKEVVKYSPNCYIIVLTNPVDAMTYTVFKESGFPKNRVIGQSGVLDTARFRTFVAEELNISVKDVTGFVLGGHGDDMVPLVRYSYAGGIPLEKLIPKDRLDAIVERTRKGGGEIVNLLGNGSAYYAPAASLVEMVEAILKDQRRILPAIAYLEGEYGYEGIYLGVPTILGGNGIEKVIELELTEEEKARSPNPSNPLKMSCACWNSGEAKIRALPGFLSHSQ
B1 showed a Km of 4.3 µM.
